Source: PMC10786891, “Massively parallel profiling of RNA-targeting CRISPR-Cas13d”
Positions count from the first letter of the chain named. Numbers in names are those of the source.

T1: EsCas13d, nuclease-dead (Eubacterium siraeum, UniProt B0MS50, R295A;H300A;R849A;H854A)
T1 sequence: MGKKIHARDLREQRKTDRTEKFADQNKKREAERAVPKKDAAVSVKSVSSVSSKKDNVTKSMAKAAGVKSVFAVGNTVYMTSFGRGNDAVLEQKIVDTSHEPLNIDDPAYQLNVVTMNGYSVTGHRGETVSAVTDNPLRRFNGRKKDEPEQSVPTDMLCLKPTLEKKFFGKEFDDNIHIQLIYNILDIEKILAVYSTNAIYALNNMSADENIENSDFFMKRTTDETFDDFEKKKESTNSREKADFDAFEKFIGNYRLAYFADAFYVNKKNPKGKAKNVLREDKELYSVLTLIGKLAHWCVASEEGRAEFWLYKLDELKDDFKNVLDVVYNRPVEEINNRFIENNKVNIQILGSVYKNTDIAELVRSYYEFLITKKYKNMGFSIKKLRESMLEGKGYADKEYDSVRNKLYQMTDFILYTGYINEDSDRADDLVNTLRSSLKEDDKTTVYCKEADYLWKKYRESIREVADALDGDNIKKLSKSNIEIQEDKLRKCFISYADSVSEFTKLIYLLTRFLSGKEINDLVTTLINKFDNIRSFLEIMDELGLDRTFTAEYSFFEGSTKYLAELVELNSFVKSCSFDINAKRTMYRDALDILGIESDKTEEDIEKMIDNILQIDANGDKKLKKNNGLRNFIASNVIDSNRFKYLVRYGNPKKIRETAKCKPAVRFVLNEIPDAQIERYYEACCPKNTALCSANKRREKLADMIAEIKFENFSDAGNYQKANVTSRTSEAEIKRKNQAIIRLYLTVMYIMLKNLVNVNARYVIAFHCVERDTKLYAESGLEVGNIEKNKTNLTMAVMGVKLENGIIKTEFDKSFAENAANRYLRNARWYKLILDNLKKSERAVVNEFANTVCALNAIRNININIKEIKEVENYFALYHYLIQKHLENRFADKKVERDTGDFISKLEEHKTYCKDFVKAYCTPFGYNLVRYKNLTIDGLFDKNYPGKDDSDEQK

B1: target 2 MT 5'PFS GAC 3'PFS UCC (mixed)
RNA 1: CACCCGUGCAAAAUUGCAGGGGUCUAAAACCUUCUCCAAAUUGUUUCAUCCU
RNA 2: GGGAAUGGAUCCACAUCUACGAAUUCGACAGGAUGAAACAAUUUGGAGAAGUCCAGAUCGGAAGAGCACACGU
B2: target 2 MT 5'PFS UAA 3'PFS AAA (mixed)
RNA 1: B1 RNA 1
RNA 2: B1 RNA 2 with G27U, C29A, U52A, C53A, C54A
B3: target 2 MT 5'PFS UAA 3'PFS AAC (mixed)
RNA 1: B1 RNA 1
RNA 2: B1 RNA 2 with G27U, C29A, U52A, C53A
B4: target 1 insA 3' of 10,insG 3' of 6 (mixed)
RNA 1: CACCCGUGCAAAAAUGCAGGGGUCUAAAACUGAGCGGAUAACCUCUCUAUGG
RNA 2: GGGAAUGGAUCCACAUCUACGAAUUCGUACCAUAGAGAGGUUAAUCCGGCUCACCGAGAUCGGAAGAGCACACGU
B5: target 2 MT 5'PFS UAA 3'PFS AAG (mixed)
RNA 1: B1 RNA 1
RNA 2: B1 RNA 2 with G27U, C29A, U52A, C53A, C54G
B6: target 2 MT 5'PFS UAA 3'PFS AAU (mixed)
RNA 1: B1 RNA 1
RNA 2: B1 RNA 2 with G27U, C29A, U52A, C53A, C54U
B7: target 2 MT 5'PFS CGC 3'PFS AGG (mixed)
RNA 1: B1 RNA 1
RNA 2: B1 RNA 2 with G27C, A28G, U52A, C53G, C54G
B8: target 2 MT 5'PFS CGC 3'PFS AGC (mixed)
RNA 1: B1 RNA 1
RNA 2: B1 RNA 2 with G27C, A28G, U52A, C53G
B9: target 2 MT 5'PFS CUG 3'PFS AGA (mixed)
RNA 1: B1 RNA 1
RNA 2: B1 RNA 2 with G27C, A28U, C29G, U52A, C53G, C54A
B10: target 2 MT 5'PFS CUG 3'PFS AGC (mixed)
RNA 1: B1 RNA 1
RNA 2: B1 RNA 2 with G27C, A28U, C29G, U52A, C53G
B11: target 2 MT 5'PFS UUU 3'PFS CUC (mixed)
RNA 1: B1 RNA 1
RNA 2: B1 RNA 2 with G27U, A28U, C29U, U52C, C53U
B12: target 2 MT 5'PFS CGA 3'PFS ACU (mixed)
RNA 1: B1 RNA 1
RNA 2: B1 RNA 2 with G27C, A28G, C29A, U52A, C54U
B13: target 2 MT 5'PFS UUU 3'PFS CUA (mixed)
RNA 1: B1 RNA 1
RNA 2: B1 RNA 2 with G27U, A28U, C29U, U52C, C53U, C54A
B14: target 2 MT 5'PFS UUU 3'PFS CUG (mixed)
RNA 1: B1 RNA 1
RNA 2: B1 RNA 2 with G27U, A28U, C29U, U52C, C53U, C54G
B15: target 1 A14G,C22U (mixed)
RNA 1: B4 RNA 1
RNA 2: GGGAAUGGAUCCACAUCUACGAAUUCGUAUCAUAGAGGGGUUAUCCGCUCACCGAGAUCGGAAGAGCACACGU
B16: target 2 MT 5'PFS CUG 3'PFS AGU (mixed)
RNA 1: B1 RNA 1
RNA 2: B1 RNA 2 with G27C, A28U, C29G, U52A, C53G, C54U
B17: target 2 MT 5'PFS GUC 3'PFS CAA (mixed)
RNA 1: B1 RNA 1
RNA 2: B1 RNA 2 with A28U, U52C, C53A, C54A
B18: target 2 MT 5'PFS GCA 3'PFS CCA (mixed)
RNA 1: B1 RNA 1
RNA 2: B1 RNA 2 with A28C, C29A, U52C, C54A
B19: target 2 MT 5'PFS GUC 3'PFS CAC (mixed)
RNA 1: B1 RNA 1
RNA 2: B1 RNA 2 with A28U, U52C, C53A
B20: target 2 MT 5'PFS GCA 3'PFS CCG (mixed)
RNA 1: B1 RNA 1
RNA 2: B1 RNA 2 with A28C, C29A, U52C, C54G
B21: target 2 MT 5'PFS GUC 3'PFS CAG (mixed)
RNA 1: B1 RNA 1
RNA 2: B1 RNA 2 with A28U, U52C, C53A, C54G
B22: target 2 MT 5'PFS CGA 3'PFS ACG (mixed)
RNA 1: B1 RNA 1
RNA 2: B1 RNA 2 with G27C, A28G, C29A, U52A, C54G
B23: target 2 MT 5'PFS CGA 3'PFS ACA (mixed)
RNA 1: B1 RNA 1
RNA 2: B1 RNA 2 with G27C, A28G, C29A, U52A, C54A
B24: target 2 MT 5'PFS CGA 3'PFS ACC (mixed)
RNA 1: B1 RNA 1
RNA 2: B1 RNA 2 with G27C, A28G, C29A, U52A
B25: target 2 MT 5'PFS UUU 3'PFS CUU (mixed)
RNA 1: B1 RNA 1
RNA 2: B1 RNA 2 with G27U, A28U, C29U, U52C, C53U, C54U
B26: target 1 U3A,G13A (mixed)
RNA 1: B4 RNA 1
RNA 2: B15 RNA 2 with U30C, G38A, G39A, U49A
B27: target 2 MT 5'PFS AUA 3'PFS AAU (mixed)
RNA 1: B1 RNA 1
RNA 2: B1 RNA 2 with G27A, A28U, C29A, U52A, C53A, C54U
B28: target 2 MT 5'PFS UUG 3'PFS CUU (mixed)
RNA 1: B1 RNA 1
RNA 2: B1 RNA 2 with G27U, A28U, C29G, U52C, C53U, C54U
B29: target 2 MT 5'PFS AUA 3'PFS AAC (mixed)
RNA 1: B1 RNA 1
RNA 2: B1 RNA 2 with G27A, A28U, C29A, U52A, C53A
B30: target 2 MT 5'PFS AUA 3'PFS AAA (mixed)
RNA 1: B1 RNA 1
RNA 2: B1 RNA 2 with G27A, A28U, C29A, U52A, C53A, C54A
B31: target 2 MT 5'PFS AUA 3'PFS AAG (mixed)
RNA 1: B1 RNA 1
RNA 2: B1 RNA 2 with G27A, A28U, C29A, U52A, C53A, C54G
B32: target 2 MT 5'PFS UGU 3'PFS AAC (mixed)
RNA 1: B1 RNA 1
RNA 2: B1 RNA 2 with G27U, A28G, C29U, U52A, C53A
B33: target 2 MT 5'PFS UUG 3'PFS AUU (mixed)
RNA 1: B1 RNA 1
RNA 2: B1 RNA 2 with G27U, A28U, C29G, U52A, C53U, C54U
B34: target 2 MT 5'PFS GUC 3'PFS ACA (mixed)
RNA 1: B1 RNA 1
RNA 2: B1 RNA 2 with A28U, U52A, C54A
B35: target 2 MT 5'PFS GUC 3'PFS ACC (mixed)
RNA 1: B1 RNA 1
RNA 2: B1 RNA 2 with A28U, U52A
B36: target 2 MT 5'PFS GUC 3'PFS ACG (mixed)
RNA 1: B1 RNA 1
RNA 2: B1 RNA 2 with A28U, U52A, C54G
B37: target 1 C6U,A20U (mixed)
RNA 1: B4 RNA 1
RNA 2: B15 RNA 2 with U30C, A32U, G38A, C46U

The binders below were run against T1, EsCas13d, nuclease-dead (assay: crRNA (strand 1, pre-loaded); Mg2+; 40 mM Tris-HCl pH 7.5, 150 mM NaCl, 6 mM MgCl2, 1 mM DTT, 0.1% Tween-20, 0.2 mg/ml BSA; 25 C; 10 min per concentration, then washed). Conditions: tags: His6-TwinStrep-SUMO cleaved; N-terminal SNAP kept (SNAP-Surface 488); label: 3' end held by stalled T7 RNA polymerase.

Which Kd does the source give for B1 here?
Its Kd is 50 ± 15 nM.

For B2, which Kd is on record?
The Kd was 2.9 ± 0.8 nM.

B3 was tested. Which Kd did it give?
The Kd was 6.6 ± 1 nM.

B4 was tested. Which Kd did it give?
The Kd was 9.9 ± 0.4 nM.

For B5, which Kd is on record?
The Kd was 4.5 ± 0.6 nM.

With B6 as the binder, how does the Kd read?
Its Kd is 4.7 ± 0.6 nM.

For B7, which Kd is on record?
Its Kd is 3.4 ± 0.5 nM.

Which Kd does the source give for B8 here?
Its Kd is 6.1 ± 1.5 nM.

For B9, which Kd is on record?
Its Kd is 2.16 ± 0.2 nM.

B10 was tested. Which Kd did it give?
The Kd was 2.52 ± 0.2 nM.

With B11 as the binder, how does the Kd read?
The Kd was 8.4 ± 0.9 nM.

For B12, which Kd is on record?
Its Kd is 17 ± 7 nM.

Which Kd does the source give for B13 here?
Its Kd is 16 ± 3.2 nM.

With B14 as the binder, how does the Kd read?
The Kd was 7.7 ± 1 nM.

For B15, which Kd is on record?
The Kd was ~49 nM.

Which Kd does the source give for B16 here?
The Kd was 3.7 ± 0.6 nM.

Which Kd does the source give for B17 here?
Its Kd is 9.8 ± 1.7 nM.

For B18, which Kd is on record?
The Kd was ~27 nM.

Which Kd does the source give for B19 here?
Its Kd is 13.4 ± 2.5 nM.

How did the Kd turn out when B20 was run?
Its Kd is 10.3 ± 1.4 nM.

B21 was tested. Which Kd did it give?
The Kd was 17.9 ± 2.4 nM.

B22 was tested. Which Kd did it give?
Its Kd is 6.9 ± 1 nM.

Which Kd does the source give for B23 here?
The Kd was 10.8 ± 2.6 nM.

B24 was tested. Which Kd did it give?
Its Kd is ~38 nM.

B25 was tested. Which Kd did it give?
Its Kd is 8.9 ± 0.8 nM.

How did the Kd turn out when B26 was run?
The Kd was 7.7 ± 0.5 nM.

How did the Kd turn out when B27 was run?
Its Kd is 8.6 ± 1.4 nM.

B28 was tested. Which Kd did it give?
Its Kd is 15.9 ± 2.1 nM.

Which Kd does the source give for B29 here?
The Kd was 5.2 ± 0.9 nM.

Which Kd does the source give for B30 here?
The Kd was 5 ± 0.8 nM.

With B31 as the binder, how does the Kd read?
Its Kd is 5.9 ± 1.4 nM.

How did the Kd turn out when B32 was run?
The Kd was 24 ± 7 nM.

For B33, which Kd is on record?
Its Kd is 11.9 ± 1 nM.

How did the Kd turn out when B34 was run?
Its Kd is 18.5 ± 2.7 nM.

How did the Kd turn out when B35 was run?
The Kd was 28 ± 6 nM.

For B36, which Kd is on record?
The Kd was 16.1 ± 1.3 nM.

With B37 as the binder, how does the Kd read?
Its Kd is 35 ± 5 nM.
